Literature values as cited in paper PMC4599565.

Target: VWF (Homo sapiens) (UniProt P04275)

## ADAMTS13 (from UniProt Q76LX8)
  Kd: 20 nM
